experiment: soluble on expression in E. coli; label from the status in PepcDB or PDB records

| Sequence | soluble on expression in E. coli |
| --- | --- |
| MVQDQLTSILTTVGLNLMAKLTDNSRSVVISPSEVALSVAKSTLKHCEPLPYELFQSDYESEFRELIEQLENFEAMKVNPSPPVWNFAISEFKKKNFKLSNGKLKKMNFIWINLETNMELSCEKTGAQMAQDKEFKVLSIPLAGDAGKFVVFFPENQEETIEESLKKLNTRKFQRLIDDLVPKFIHFEHPVFKIQSKFFISENLTMTDRGLTHEKEFEVCHGENNDFRRGLLMDRCEYVPYIFRVNRPFIFCVVQNGVPVTMGIFDGN | not soluble |
| MAKEKEKLFSEFPPVSREAWIDKITADLKGVPFEKKLVWRTNEGFNVNPFYRREDIEDLKTTTSLPDEYPYVRSTRMHNEWLVRQDIVVGDNVAEANEKALDLLNKGVDSLGFYLKKVHINVDTLAALLKDIELTAVELNFNCCITRAADLLSAFSAYVKKVGADPNKCHGSVSYDPFKKQLVRGVSNPDWVKMTLPVMDAARELPAFRVLNVNAVNLSDAGAFITQELGYALAWGAELLDKLTDAGYKPEEIASRIKFNFGIGSNYFMEIAKFRAARWLWAQIVGSYGDQYKNETAKIHQHATTSMWNKTVFDAHVNLLRTQTETMSAAIAGVDSITVLPFDVTYQQSDDFSERIARNQQLLLKEECHFDKVIDPSAGSYYIETLTNSIGEEAWKLFLSVEDAGGFTQAAETASIQKAVNASNIKRHQSVATRREIFLGTNQFPNFTEVAGDKITLAQGEHDCNCVKSIEPLNFSRGASEFEALRLATEKSGKTPVVFMLTIGNLAMRLARSQFSSNFFGCAGYKLIDNLGFKSVEEGVDAALAAKADIVVLCSSDDEYAEYAPAAFDYLAGRAEFVVAGAPACMADLEAKGIRNYVHVKSNVLETLRAFNDKFGIR | not soluble |
| MGSDKIHHHHHHMFFEIALIGTTASGKTYIANTLAREFNAVVLSLDSLCVYKEINIASAKPSQDDLASIKYFGVNLLSVNEHFNVELFIREYQKAKEFALARNLPLIIVGGTGFYLKTMIDGLSEKTLESKSSLNNDEIYALLLNIDPNYKIEKNDTYRLKKWLGIYEQTREIPSEFLKRTQKTGVLKDIEIYELAWDKEILKKRIKTRTKEMLDNGLLDEAKILFSKFDHKLKALNSIGLKECKEYLDGEISFKELENLITIHTTQLAKRQRTFNKKFQSKALEFDKALATLRMKFSIEK | not soluble |
| MGSDKIHHHHHHMKLLEVKGLKKYFPLTKGFFKKVVGYVRAVDDVSFDIKQGETLALVGESGCGKTTTAKSILRAIDPTDGDVILHLDGKDVNIAKLSRDELKPYRRYMQMIFQNPYTSLNPRMKVKEIVGEPLLVNGIAKGKELEDRVAELLKAVGLRPEYMIRYPHAFSGGQRQRIVIARAIALRPKLVVCDEPTSALDVSIRAQILNLLMDLQEEFALTYLFITHDLSVVEHISDRVAVMYLGKIVELSSTEEIFENPKHPYTETLLRSVPKPDPDLREELVPIEGEVPNPANPPSGCYFHPRCPYAKSICKEEYPEFRNLGTEDNPHYVACHFAESLKLRGVKITL | not soluble |
| MNRLPTCLLAATLFLGSASLYAEDPACARVRLADPGWSDIAVTNATAAFLLESLGYQVKIDTLSVPIIYGGLRDGQVDAFLGGWMPAHQDYHDKFVASGQVERLGRNLDGTRFTLAVPRYVWDAGVHRFEDLAAQGQRFNRKLYGIGSGAPANQSIQKMIDANQFGLGDWKLVESSEQAMLAELGRAEKRQRWLVFLGWTPHPMNIRHDLRYLEGGEQYFGDRGQVYTLARKGYAAQCPNPARLLANLRFDLDMENRLMSDALEGTATPASATRAWLKANPRVLEAWLQGVTSRDGGDALAAVRGQP | not soluble |
| MPQGRGDGGVRMAAISLTKVRETAPALVDLYKTAGVSLTKHGMAGTRAAVYLVVDYSGSMKPYYKDGSVQALADRVLSLSAHLDDDGIVPVVFFSTDVDAVTEIALADHQGRIERIVAGLGHMGKTSYHLAMDAVIDHYLDSGARHPALVVFQTDGGPINRLAAERYLCKAAPLPLFWQFVGFGDPDSRQFEYLRKLDELAVPGKRVIDNAGFFHAGRDPRKVTDAELYDRLVGEFPQWLAAARAQGIARPSLEHHHHHH | not soluble |
| FSGSEATAAILSRAPWSLQSVNPGLKTNSSKEPKFTKCRSPERETFSCHWTDEVHHGTKNLGPIQLFYTRRNTQEWTQEWKECPDYVSAGENSCYFNSSFTSIWIPYCIKLTSNGGTVDEKCFSVDEIVQPDPPIALNWTLLNVSLTGIHADIQVRWEAPRNADIQKGWMVLEYELQYKEVNETKWKMMDPILTTSVPVYSLKVDKEYEVRVRSKQRNSGNYGEFSEVLYVTLPQMSQ | soluble |
| MSLAIPFKRINLNLILHLDALLSERSVSAAAEKVFVSQPAMSSSLKQLRELFKDPLLIPGKGEYFLSPKAKELQPQLEQVMFFIRNILQPNERFDPFQTKRSFKIALPDYVELILLPSLMAALEKLPHIVIETTIQSMADDPHLFIDENVDLAIGAINENSLSAQLKVEKLYEEEIICFASKNNPLINRPLSLEDYISNKHIAFSFNQERYSHSAEYLYKRKLVRNDMLFVKNILPAIFAVANSDAVISTAPSFLINMFARQFNLGMQPLPFNLEPTPIYLVTHSKSQYDEGVSWLAKLVSSSIKSPSEGHHHHHH | soluble |
| MGSSHHHHHHSSGLEVLFQGPHMDFDVKRKYFRQELERLDEGLRKEDMAVHVRRDHVFEDSYRELHRKSPEEMKNRLYIVFEGEEGQDAGGLLREWYMIISREMFNPMYALFRTSPGDRVTYTINPSSHANPNHLSYFKFVGRIVAKAVYDNRLLECYFTRSFYKHILGKSVRYTDMESEDYHFYQGLVYLLENDVSTLGYDLTFSTEVQEFGVAEVRDLKPNGANILVTEENKKEYVHLVCQMRMTGAIRKQLAAFLEGFYEIIPKRLISIFTEQELELLISGLPTIDIDDLKSNTEYHKYQSNSIQIQWFWRALRSFDQADRAKFLQFVTGTSKVPLQGFAALEGMNGIQKFQIHRDDRSTDRLPSAHTCFNQLDLPAYESFEKLRHMLLLAIQEASEGFGLA | soluble |
| LAQRAGILCREFAIGFGPKIFSFKKNETVYTIRLLPVGGFVRMAGEDPEMIEVKPGYTVGLLFNKEDQVEKVIINQKEKYPDALVIEVETADLEHDMKITGYEQGKEDELSSFTVSETSFFIVDGEEVQIAPYNRQFGSKPVWQRIKA | not soluble |
| MGSDKIHHHHHHMANGLQRLIRSLKLVARYGLIVMNDGLICLPIKQRQVVFESFNGKDVNDNPAAIYRELVATAPEYRTTAYFSVKPREFAALHKKYPQIQLVKRFTPRWVWLMARAEFWVLNSRLPNWWHQNRRTTVIQTWHGTPLKKLGADIEHVAIPGTTTAAYHQEFKTAASRWQYLIAPNQYSQTIFKSAFGFHHQFLSVGYPRNDRLYTTLPAEITDLKQQLLGSTKGPVVTYAPTWRDDMAVRPGVYQFDLPFDLAEFFQHVPANTQLIIRPHYLVKDAIDIHGFEERVHVLAETDITDLYLISDLLITDYSSVMFDFANLQRPQLFFAYDLAHYRDQLRGFYFDYEQEIPGPLVTTASAFYAQLDRWRQDGAFHDYQARQAAFYEKFCSWENGTASRQVVQVMLHGKDEIK | not soluble |
| MEGLARVFLIGGASKAVRYDEQTTIERVIHVVARGIGISQVAVAHFALRLVTGPSPQTAGSGDSLWLHPMLRITQLPHIYARHLPIGVCDEIKLEMRMRFMPQSVYELQATDSSAFVYLHEQVVDEFFSHVAWRSSVEVALEVAALKVCRDFAEHQHNKGADHHLEDLDIEACIQSLIPNVLHNPGFKHSHLKKTFTAYIKKFSATSPNESIIRSLALLLEVVKFDVELFKASLGAGWTKPVELVVGPHTGLSYRLNERCDSSRLLELRTIAEITIRKMENGSEKTLMQLNLSGAAKPVLITLSTEELSQSLAHLLDGYQMLYNQRDSVFKLKGIERCETLTMHEATIRPKTPNNIDSNIRLRRELITLKELIGGGQFGNVYKAVYHDLEKDERIAVAVKVCKTDAEPADTQLILQESSLMRNFRHSNIIQLIGVCVDQPMWLVLELAPKGELREYLQQEKDWLPLRILTLFCSQICDSLVYLHSTRFVHRDIAARNILVCSPQCVKLADFGLSRALDYDAVYTASRGKLPIKWLAPESVNYRQFSMASDVWMFGVCMWEIFSLGVKPWAGVTNSDVIMHIEQGSRPPCPEKCPTALYNFIRSKMWAIEPHKRPTVDQIYAIIEDVRQQIIQNIPPEQIIVGKPMTAAGVIVAEMSSLPGLTLYRTMEDQKRQAEEDAKWLEQEDDEDEDDQDIDQIPSTSHSSVENIRTSNGYLHHTPTSTRSLRFEDKTSRGLRRSVDGVCDAVTKLQNSFNNLTHNDDFLHSVKEVTSQLREMLIVASGMRDRVTTTTQRTDVDMTKTLIANDMKQMSRVMGKLQVNGHQATYNTLRRDVVRICGELAVNCTTLQLQLTQPPLENEFSSLLSNC | not soluble |
| MGSDKIHHHHHHMGEGLSVIGFDADDTLWQNESFFRLTEDKFAELLADFAEGAHLRERLLALETKNIGHYGFGIKGFMLSMIETAVEVTEGRVDGSVISKILEMGQDMLRHPIHLLPHVEETLGTLSDRYPLVLITKGDLLHQEQKLAASGLGDLFAGVEIVSAKLPSTYDTAFSVHGVGPKHAMMVGNSMKSDIRPALDAGAFAVYVPHGLTWELEHTETPVGHPRYHELPDLGGLIDLIETVTD | not soluble |
| MAIRIAINGFGRIGRSVLRALYESGRRAEISVVAINELASAEGMAHLLKYDSSHGRFAWDVRQECDSLYVGDDIIRLIHQSEIEQLPWSELGIDVVLDCSGVYGSREDGEAHVASGAKKVLFAHPGGHDLDATVVYGVNHQDLRAEHRIVSNASCTTNCIIPIIQLLDIAYGIESGTVTTIHSSMNDQPVIDAYHQDLRRTRAASQSIIPVDTKLAAGITRIFPKFCDRFEAISVRVPTINVTAIDLSVSVTHPVGVAEVNQLLQKAARGAFRGIVDYTELPLVSMDFNHDPHSAIVDGTQTRVSGQHLIKTLVWCDNEWGFANRMLDTTLAMAKSGF | not soluble |
| GSMEPAMEPETLEARINRATNPLNKELDWASINGFCEQLNEDFEGPPLATRLLAHKIQSPQEWEAIQALTVLETCMKSCGKRFHDEVGKFRFLNELIKVVSPKYLGSRTSEKVKNKILELLYSWTVGLPEEVKIAEAYQMLKKQGIVKS | soluble |
| GPGSMPAPSLATRHFTFTHEVPADDVFELEENAPRRVPIACVTLQMVSFNRRCFWFHIAMTREGFSAPPPPFGACAVSFSGVSGDSAATTLVDDTALPQLGFKEAQHEVGVGAPNPQAVFADSLARRLSRRLEREFTSGVAVYVACGIIGENQSDLLGTPAGYGSEVTRRFGAEVFKHAMDLICEEGLGKATAA | not soluble |
| MLKIGIIPNEDKDEELKYTRILVDSIKKCGGTAIVCDDIALKLGDKESNINEDNIVDMSDVMVCLGGDGTFLKAARMTVVKGKPLLGVNLGKLGFLADVDKNDIENAVKRLVEDKFTVDERMMLDTVIVRDGKIIAEDIVLNDVVISRGAISRILHLKTYINDAFMDLYPGDGLIISTPTGSTAYSLSAGGPLVEPDVDLIICTPICPHLLYSRSFITTADRVIKVVVAESSSHEAMVTVDGQNGYEVRGGDVIITKKSRIRMPMVRLNGKNFFDVLRGKIYDRGESMK | not soluble |
| MVWSSETFGMTPEEQIEWMALDDQEKKKLERKRARNRQAATKCRQKKMDRIKELEEQVLHEKHRGQRLDAELLELNRALEHFRRTVEHHSGNGCPNNSIRV | not soluble |

Source: the DeepSol protein solubility set
